In patent publication US20220324939A1 (Regeneron, published 2022):

T1: MAGE-A4 peptide on HLA-A*02:01 (human)
T1 peptide: KVLEHVVRV

T2: MAGE-A4 peptide on HLA-A*02:01 (human)
T2 peptide: GVYDGREHTV

T3: MAGE-A8 peptide on HLA-A*02:01 (human)
T3 peptide: GLYDGREHSV


Columns and labels:
[1] = target: T1, MAGE-A4 peptide on HLA-A*02:01; experiment: multimer staining
[2] = target: T4, soluble HLA-A2 (…) tetramer (human); experiment: flow cytometry, HLA-A2 (…) tetramer staining of CHO cells transfected with the TCR
T4 construct: Bought tetramer reagent; also called MAGE-A4/HLA tetramer reagent; HLA-A02:01 MAGE-A4 tetramer
Description: Samples were then analyzed on an LSRFortessa X-20 (BD Biosciences, San Jose, Calif.).

[3] = target: T2, MAGE-A4 peptide on HLA-A*02:01; experiment: multimer staining
[4] = target: T5, soluble HLA-A2 MAGE-A4 (…) tetramer (human); experiment: flow cytometry, HLA-A2 MAGE-A4 (…) tetramer staining of CHO cells transfected with the TCR
T5 construct: Bought tetramer reagent; also called MAGE-A4/HLA tetramer reagent; HLA-A02:01 MAGE-A4 tetramer
Description: (§1) Samples were then analyzed on an LSRFortessa X-20 (BD Biosciences, San Jose, Calif.). […] However, a more stringent cutoff, such as 3%, could be used to separate out Ag+ TCRs that behave better in the binding assay. Ag+ TCRs were determined by Next Generation Sequencing.

[5] = target: T5, soluble HLA-A2 MAGE-A4 (…) tetramer; experiment: flow cytometry tetramer staining; % with MAGE-A4 tetramer divided by % with MAGE-A8 tetramer (reference)
Description: as §1

[6] = target: T3, MAGE-A8 peptide on HLA-A*02:01; experiment: multimer staining
[7] = target: T6, soluble HLA-A2 MAGE-A8 (…) tetramer (human); experiment: flow cytometry, HLA-A2 MAGE-A8 (…) tetramer staining of CHO cells transfected with the TCR
T6 construct: Bought tetramer reagent; also called MAGE-A8/HLA tetramer reagent; HLA-A02:01 MAGE-A8 tetramer
Description: as §1

binding result [1] | % in Ag+ gate >250 MFI, >1% [2] [%] | binding result [3] | % tetramer in Ag+ gate (MAGE-A4) [4] [%] | MAGE-A4/MAGE-A8 (ratio of % tetramer in Ag+ gate) [5] | binding result [6] | % tetramer in Ag+ gate (MAGE-A8) [7] [%] | Binder
recognises | 8.76 | – | – | – | – | – | PN41557 (TCR, V domains shown, stained with anti-mouse TCR constant region H57-597; full-length chains on transfected CHO cells; also called TCR No. 11) V domain 1: EDQVTQSPEALRLQEGESSSLNCSYTVSGLRGLFWYRQDPGKGPEFLFTLYSAGEEKEKERLKATLTKKESFLHITAPKPEDSATYLCAVQAVTGGGNKLTFGTGTQLKVEL V domain 2: GAVVSQHPSWVICKSGTSVKIECRSLDFQATTMFWYRQFPKQSLMLMATSNEGSKATYEQGVEKDKFLINHASLTLSTLTVTSAHPEDSSFYICSASWDRDYGYTFGSGTRLTVV
– | – | recognises | 56.5 | 991 | – | – | PN45593 (TCR, V domains shown, stained with anti-mouse TCR constant region H57-597; full-length chains on transfected CHO cells; also called TCR No. 40) V domain 1: AQKITQTQPGMFVQEKEAVTLDCTYDTSDPSYGLFWYKQPSSGEMIFLIYQGSYDQQNATEGRYSLNFQKARKSANLVISASQLGDSAMYFCAMREGPGNNARLMFGDGTQLVVKP V domain 2: NAGVTQTPKFRVLKTGQSMTLLCAQDMNHEYMYWYRQDPGMGLRLIHYSVGEGTTAKGEVPDGYNVSRLKKQNFLLGLESAAPSQTSVYFCASSYWDRGSPLHFGNGTRLTVT
– | – | recognises | 3.18 | 18.7 | – | – | PN45581 (TCR, V domains shown, stained with anti-mouse TCR constant region H57-597; full-length chains on transfected CHO cells; also called TCR No. 44) V domain 1: AQKITQTQPGMFVQEKEAVTLDCTYDTSDPSYGLFWYKQPSSGEMIFLIYQGSYDQQNATEGRYSLNFQKARKSANLVISASQLGDSAMYFCAMREGPGNNARLMFGDGTQLVVKP V domain 2: EAQVTQTPRYLITVTGKKLTVTCSQNMNHEYMSWYRQDPGLGLRQIYYSMNVEVTDKGDVPEGYKVSRKEKRNFPLILESPSPNQTSLYFCASSLWTGGGYTFGSGTRLTVV
recognises | 85.4 | – | – | – | – | – | PN41839 (TCR, V domains shown, stained with anti-mouse TCR constant region H57-597; full-length chains on transfected CHO cells; also called TCR No. 34) V domain 1: DAKTTQPPSMDCAEGRAANLPCNHSTISGNEYVYWYRQIHSQGPQYIIHGLKNNETNEMASLIITEDRKSSTLILPHATLRDTAVYYCIVYGGSQGNLIFGKGTKLSVKP V domain 2: DAGVTQSPTHLIKTRGQQVTLRCSPKSGHDTVSWYQQALGQGPQFIFQYYEEEERQRGNFPDRFSGHQFPNYSSELNVNALLLGDSALYLCASSFSRVQPQHFGDGTRLSIL
– | – | recognises | 11.5 | 1150 | no recognition | – | PN45515 (TCR, V domains shown, stained with anti-mouse TCR constant region H57-597; full-length chains on transfected CHO cells; also called TCR No. 39) V domain 1: DAKTTQPPSMDCAEGRAANLPCNHSTISGNEYVYWYRQIHSQGPQYIIHGLKNNETNEMASLIITEDRKSSTLILPHATLRDTAVYYCIVRPYNAGNNRKLIWGLGTSLAVNP V domain 2: DVKVTQSSRYLVKRTGEKVFLECVQDMDHENMFWYRQDPGLGLRLIYFSYDVKMKEKGDIPEGYSVSREKKERFSLILESASTNQTSMYLCASSFGGGYYGYTFGSGTRLTVV
– | – | recognises | 16 | 2.5 | recognises | 6.39 | PN45489 (TCR, V domains shown, stained with anti-mouse TCR constant region H57-597; full-length chains on transfected CHO cells; also called TCR No. 48) V domain 1: TQLLEQSPQFLSIQEGENLTVYCNSSSVFSSLQWYRQEPGEGPVLLVTVVTGGEVKKLKRLTFQFGDARKDSSLHITAAQPGDTGLYLCAEDGGSQGNLIFGKGTKLSVKP V domain 2: DVKVTQTSRYLVKRTGEKVFLECVQDMDHENMFWYRQDPGLGLRLIYFSYDVKMKEKGDIPEGYSVSREKKERFSLILESASTNQTSMYLCASSLQGRYYGYTFGSGTRLTVV
– | – | recognises | 3.7 | 1.97 | recognises | 1.88 | PN45494 (TCR, V domains shown, full-length chains on transfected CHO cells; also called TCR No. 50) V domain 1: GNSVTQIEGPVTLSEEAFLTINCTYTATGYPSLFWYVQYPGEGLQLLLKATKADDKGSNKGFEATYRKETTSFHLEKGSVQVSDSAVYFCALSDTRDDKTIFGKGTRLHILP V domain 2: DVKVTQSSRYLVKRTGEKVFLECVQDMDHENMFWYRQDPGLGLRLIYFSYDVKMKEKGDIPEGYSVSREKKERFSLILESASTNQTSMYLCASSLQGRYYGYTFGSGTRLTVV
– | – | recognises | 59.8 | 498 | – | – | PN45539 (TCR, V domains shown, stained with anti-mouse TCR constant region H57-597; full-length chains on transfected CHO cells; also called TCR No. 41) V domain 1: DAKTTQPPSMDCAEGRAANLPCNHSTISGNEYVYWYRQIHSQGPQYIIHGLKNNETNEMASLIITEDRKSSTLILPHATLRDTAVYYCIVRPYNAGNNRKLIWGLGTSLAVNP V domain 2: DVKVTQSSRYLVKRTGEKVFLECVQDMDHENMFWYRQDPGLGLRLIYFSYDVKMKEKGDIPEGYSVSREKKERFSLILESASTNQTSMYLCASSFEGGYYGYTFGSGTRLTVV
– | – | recognises | 87.9 | 1.21 | recognises | 72.9 | PN45481 (TCR, V domains shown, full-length chains on transfected CHO cells; also called TCR No. 54) V domain 1: GNSVTQMEGPVTLSEEAFLTINCTYTATGYPSLFWYVQYPGEGLQLLLKATKADDKGSNKGFEATYRKETTSFHLEKGSVQVSDSAVYFCALSDTRDDKIIFGKGTRLHILP V domain 2: DVKVTQSSRYLVKRTGEKVFLECVQDMDHENMFWYRQDPGLGLRLIYFSYDVKMKEKGDIPEGYSVSREKKERFSLILESASTNQTSMYLCASSLQGRYYGYTFGSGTRLTVV
recognises | 92.2 | – | – | – | – | – | PN41550 (TCR, V domains shown, stained with anti-mouse TCR constant region H57-597; full-length chains on transfected CHO cells; also called TCR No. 10) V domain 1: QKEVEQNSGPLSVPEGAIASLNCTYSDRGSQSFFWYRQYSGKSPELIMSIYSNGDKEDGRFTAQLNKASQYVSLLIRDSQPSDSATYLCAVNLSWGKFQFGAGTQVVVTP V domain 2: DAGVTQSPTHLIKTRGQQVTLRCSPKSGHDTVSWYQQALGQGPQFIFQYYEEEERQRGNFPDRFSGHQFPNYSSELNVNALLLGDSALYLCASSLDRSTEAFFGQGTRLTVV
recognises | 10.9 | – | – | – | – | – | PN41539 (TCR, V domains shown, stained with anti-mouse TCR constant region H57-597; full-length chains on transfected CHO cells; also called TCR No. 9) V domain 1: AQKVTQAQTEISVVEKEDVTLDCVYETRDTTYYLFWYKQPPSGELVFLIRRNSFDEQNEISGRYSWNFQKSTSSFNFTITASQVVDSAVYFCALSEGDTGGFKTIFGAGTRLFVKA V domain 2: NAGVTQTPKFRILKIGQSMTLQCAQDMNHNYMYWYRQDPGMGLKLIYYSVGAGITDKGEVPNGYNVSRSTTEYFPLRLELAAPSQTSVYFCASSYFPDRGLGNTIYFGEGSWLTVV
recognises | 58.7 | – | – | – | – | – | PN41613 (TCR, V domains shown, stained with anti-mouse TCR constant region H57-597; full-length chains on transfected CHO cells; also called TCR No. 19) V domain 1: AQTVTQSQPEMSVQEAETVTLSCTYDTSESDYYLFWYKQPPSRQMILVIRQEAYKQQNATENRFSVNFQKAAKSFSLKISDSQLGDAAMYFCAYRSATGNQFYFGTGTSLTVIP V domain 2: EAQVTQNPRYLITVTGKKLTVTCSQNMNHEYMSWYRQDPGLGLRQIYYSMNVEVTDKGDVPEGYKVSRKEKRNFPLILESPSPNQTSLYFCASSLLYSNQPQHFGDGTRLSIL
– | – | recognises | 12.3 | 9.92 | – | 1.24 | PN45418 (TCR, V domains shown, stained with anti-mouse TCR constant region H57-597; full-length chains on transfected CHO cells; also called TCR No. 46) V domain 1: EDQVTQSPEALRLQEGESSSLNCSYTVSGLRGLFWYRQDPGKGPEFLFTLYSAGEEKEKERLKATLTKKESFLHITAPKPEDSATYLCAVQPSYSGAGSYQLTFGKGTKLSVIP V domain 2: EAQVTQNPRYLITVTGKKLTVTCSQNMNHEYMSWYRQDPGLGLRQIYYSMNVEVTDKGDVPEGYKVSRKEKRNFPLILESPSPNQTSLYFCASSPGTGGFSPLHFGNGTRLTVT
– | – | recognises | 34.7 | 2.08 | recognises | 16.7 | PN45460 (TCR, V domains shown, full-length chains on transfected CHO cells; also called TCR No. 49) V domain 1: GNSVTQMEGPVTLSEEAFLTINCTYTATGYPSLFWYVQYPGEGLQLLLKATKADDKGSNKGFEATYRKETTSFHLEKGSVQVSDSAVYFCALSDTRDDKIIFGKGTRLHILP V domain 2: EAQVTQSPRYLITVTGKKLTVTCSQNMNHEYMSWYRQDPGLGLRQIYYSMNVEVTDKGDVPEGYKVSRKEKRNFPLILESPSPNQTSLYFCASSPGTGGFSPLHFGNGTRLTVT
– | – | recognises | 69.1 | – | – | – | PN45584 (TCR, V domains shown, stained with anti-mouse TCR constant region H57-597; full-length chains on transfected CHO cells; also called TCR No. 43) V domain 1: AQKITQTQPGMFVQEKEAVTLDCTYDTSDPSYGLFWYKQPSSGEMIFLIYQGSYDEQNATEGRYSLNFQKARKSANLVISASQLGDSAMYFCAMREGPGSGNTGKLIFGQGTTLQVKP V domain 2: NAGVTQTPKFRILKIGQSMTLQCAQDMNHNYMYWYRQDPGMGLKLIYYSVGAGITDKGEVPNGYNVSRSTTEYFPLRLELAAPSQTSVYFCASSYSEWQNYGYTFGSGTRLTVV
– | – | recognises | 94.7 | 1.43 | recognises | 66.3 | PN45557 (TCR, V domains shown, full-length chains on transfected CHO cells; also called TCR No. 52) V domain 1: AQKITQTQPGMFVQEKEAVTLDCTYDTSDPSYGLFWYKQPSSGEMIFLIYQGSYDQQNATEGRYSLNFQKARKSANLVISASQLGDSAMYFCAMREGPGSGNTGKLIFGQGTTLQVKP V domain 2: NAGVTQTPKFRILKIGQSMTLQCAQDMNHNYMYWYRQDPGMGLKLIYYSVGAGITDKGEVPNGYNVSRSTTEYFPLRLELAAPSQTSVYFCASSYSEWQNYGYTFGSGTRLTVV
recognises | 7.83 | – | – | – | – | – | PN41516 (TCR, V domains shown, stained with anti-mouse TCR constant region H57-597; full-length chains on transfected CHO cells; also called TCR No. 4) V domain 1: TQLLEQSPQFLSIQEGENLTVYCNSSSVFSSLQWYRQEPGEGPVLLVTVVTGGEVKKLKRLTFQFGDARKDSSLHITAAQPGDTGLYLCAGERDSWGKFQFGAGTQVVVTP V domain 2: NAGVTQTPKFRILKIGQSMTLQCAQDMNHNYMYWYRQDPGMGLKLIYYSVGAGITDKGEVPNGYNVSRSTTEYFPLRLELAAPSQTSVYFCASSFWTGGDEKLFFGSGTQLSVL
